Peptide text beside a SMILES is read from it.
Columns and labels:
[1] = target: HLA-A*02:01 (HLA-A2) (Homo sapiens, UniProt P04439, D140Y/D185E/D98H/E176V/E277Q/G131W/G231S/I119V/I121R/I166T/I218V/L300P/L318F/N151K/N90K/P208A/P217A/Q86G/Q94H/R138H/R169H/T345S); details: cited from earlier work
Text: In this study, we investigated whether […] is also a neoantigen that can be targeted by TCR gene therapy. We isolated various T-cells for […] and cloned the TC ...

[2] = target: T1, HLA-A*11:01 (HLA-A11) (Homo sapiens, UniProt P04439, A114D/D185E/E176A/F33Y/L180Q/S129P/T187R); experiment: Competition-based peptide-HLA class I binding assay, HLA-A11
T1 construct: soluble HLA molecules mixed with a fluorescein-labeled peptide; made in house; host or cells: Escherichia coli

[3] = target: T2, HLA-A*03:01 (HLA-A3) (Homo sapiens, UniProt P04439); experiment: Competition-based peptide-HLA class I binding assay, HLA-A3
T2 construct: soluble HLA molecules mixed with a fluorescein-labeled peptide; made in house; host or cells: Escherichia coli

[4] = target: soluble HLA-A*03:01 (heavy chain with β2M); experiment: competition-based peptide-HLA class I binding assay (gel-filtration HPLC with fluorescence detection); 25 pmol HLA heavy chain, 25 pmol β2M, 100 fmol KVFPC(Fl)ALINK and 10-fold serial dilutions of competitor peptide in 100 µL; 100 mM phosphate, 75 mM NaCl, 1 mM CHAPS, pH 7; 24 h at RT; IC50 = 50% reduction of the fluorescent pHLA-complex peak
[5] = target: soluble HLA-A*11:01 (heavy chain with β2M); experiment: as above

**Q.** For CLAVEEVSL, which HLA-A2 binding [1] is on record?
**A.** The HLA-A2 binding was “HLA-A*02:01 (HLA-A2)-binding”.

**Q.** Which IC50 [2] does the source give for `CC(C)C[C@H](NC(=O)[C@H](CO)NC(=O)[C@@H](NC(=O)[C@H](CCC(=O)O)NC(=O)[C@H](CCC(=O)O)NC(=O)[C@@H](NC(=O)[C@H](C)N)C(C)C)C(C)C)C(=O)N[C@@H](CCCNC(=N)N)C(=O)N[C@@H](CCCCN)C(=O)O` (H-AVEEVSLRK-OH) here?
**A.** Its IC50 is 50.9 nM.

**Q.** What about the IC50 [3] of the same molecule?
**A.** The IC50 was 1330 nM.

B1: dNPM1 … peptide (peptide)
peptide: AVEEVSLRK
**Q.** With B1 as the molecule, how does the IC50 [4] read?
**A.** Its IC50 is 1330 nM.

**Q.** And the IC50 [5]?
**A.** Its IC50 is 50.9 nM.
